B1: anti-CD20 (rituximab) human IgG1 L234T/L235K/G236R (antibody)
heavy: QVQLQQPGAELVKPGASVKMSCKASGYTFTSYNMHWVKQTPGRGLEWIGAIYPGNGDTSYNQKFKGKATLTADKSSSTAYMQLSSLTSEDSAVYYCARSTYYGGDWYFNVWGAGTTVTVSSASTKGPSVFPLAPSSKSTSGGTAALGCLVKDYFPEPVTVSWNSGALTSGVHTFPAVLQSSGLYSLSSVVTVPSSSLGTQTYICNVNHKPSNTKVDKKVEPKSCDKTHTCPPCPAPETKRGPSVFLFPPKPKDTLMISRTPEVTCVVVDVSHEDPEVKFNWYVDGVEVHNAKTKPREEQYNSTYRVVSVLTVLHQDWLNGKEYKCKVSNKALPAPIEKTISKAKGQPREPQVYTLPPSRDELTKNQVSLTCLVKGFYPSDIAVEWESNGQPENNYKTTPPVLDSDGSFFLYSKLTVDKSRWQQGNVFSCSVMHEALHNHYTQKSLSLSPGK
light: QIVLSQSPAILSASPGEKVTMTCRASSSVSYIHWFQQKPGSSPKPWIYATSNLASGVPVRFSGSGSGTSYSLTISRVEAEDAATYYCQQWTSNPPTFGGGTKLEIKRTVAAPSVFIFPPSDEQLKSGTASVVCLLNNFYPREAKVQWKVDNALQSGNSQESVTEQDSKDSTYSLSSTLTLSKADYEKHKVYACEVTHQGLSSPVTKSFNRGEC
notes: EU numbering; also called 2-58; copies: 2 + 2
B2: anti-CD20 human IgG1 L234K/L235S/G236R (antibody)
heavy: QVQLQQPGAELVKPGASVKMSCKASGYTFTSYNMHWVKQTPGRGLEWIGAIYPGNGDTSYNQKFKGKATLTADKSSSTAYMQLSSLTSEDSAVYYCARSTYYGGDWYFNVWGAGTTVTVSSASTKGPSVFPLAPSSKSTSGGTAALGCLVKDYFPEPVTVSWNSGALTSGVHTFPAVLQSSGLYSLSSVVTVPSSSLGTQTYICNVNHKPSNTKVDKKVEPKSCDKTHTCPPCPAPEKSRGPSVFLFPPKPKDTLMISRTPEVTCVVVDVSHEDPEVKFNWYVDGVEVHNAKTKPREEQYNSTYRVVSVLTVLHQDWLNGKEYKCKVSNKALPAPIEKTISKAKGQPREPQVYTLPPSRDELTKNQVSLTCLVKGFYPSDIAVEWESNGQPENNYKTTPPVLDSDGSFFLYSKLTVDKSRWQQGNVFSCSVMHEALHNHYTQKSLSLSPGK
light: QIVLSQSPAILSASPGEKVTMTCRASSSVSYIHWFQQKPGSSPKPWIYATSNLASGVPVRFSGSGSGTSYSLTISRVEAEDAATYYCQQWTSNPPTFGGGTKLEIKRTVAAPSVFIFPPSDEQLKSGTASVVCLLNNFYPREAKVQWKVDNALQSGNSQESVTEQDSKDSTYSLSSTLTLSKADYEKHKVYACEVTHQGLSSPVTKSFNRGEC
notes: also called 2-24; 1-89
B3: anti-CD20 human IgG1 L234K/L235R/G236R (antibody)
heavy: QVQLQQPGAELVKPGASVKMSCKASGYTFTSYNMHWVKQTPGRGLEWIGAIYPGNGDTSYNQKFKGKATLTADKSSSTAYMQLSSLTSEDSAVYYCARSTYYGGDWYFNVWGAGTTVTVSSASTKGPSVFPLAPSSKSTSGGTAALGCLVKDYFPEPVTVSWNSGALTSGVHTFPAVLQSSGLYSLSSVVTVPSSSLGTQTYICNVNHKPSNTKVDKKVEPKSCDKTHTCPPCPAPEKRRGPSVFLFPPKPKDTLMISRTPEVTCVVVDVSHEDPEVKFNWYVDGVEVHNAKTKPREEQYNSTYRVVSVLTVLHQDWLNGKEYKCKVSNKALPAPIEKTISKAKGQPREPQVYTLPPSRDELTKNQVSLTCLVKGFYPSDIAVEWESNGQPENNYKTTPPVLDSDGSFFLYSKLTVDKSRWQQGNVFSCSVMHEALHNHYTQKSLSLSPGK
light: QIVLSQSPAILSASPGEKVTMTCRASSSVSYIHWFQQKPGSSPKPWIYATSNLASGVPVRFSGSGSGTSYSLTISRVEAEDAATYYCQQWTSNPPTFGGGTKLEIKRTVAAPSVFIFPPSDEQLKSGTASVVCLLNNFYPREAKVQWKVDNALQSGNSQESVTEQDSKDSTYSLSSTLTLSKADYEKHKVYACEVTHQGLSSPVTKSFNRGEC
notes: also called 2-23; 1-88
B4: anti-CD20 human IgG1 L234Q/L235A/G236R (antibody)
heavy: not shown
light: QIVLSQSPAILSASPGEKVTMTCRASSSVSYIHWFQQKPGSSPKPWIYATSNLASGVPVRFSGSGSGTSYSLTISRVEAEDAATYYCQQWTSNPPTFGGGTKLEIKRTVAAPSVFIFPPSDEQLKSGTASVVCLLNNFYPREAKVQWKVDNALQSGNSQESVTEQDSKDSTYSLSSTLTLSKADYEKHKVYACEVTHQGLSSPVTKSFNRGEC
notes: also called 2-27
B5: anti-CD20 human IgG1 L234R/L235K/G236R (antibody)
heavy: QVQLQQPGAELVKPGASVKMSCKASGYTFTSYNMHWVKQTPGRGLEWIGAIYPGNGDTSYNQKFKGKATLTADKSSSTAYMQLSSLTSEDSAVYYCARSTYYGGDWYFNVWGAGTTVTVSSASTKGPSVFPLAPSSKSTSGGTAALGCLVKDYFPEPVTVSWNSGALTSGVHTFPAVLQSSGLYSLSSVVTVPSSSLGTQTYICNVNHKPSNTKVDKKVEPKSCDKTHTCPPCPAPERKRGPSVFLFPPKPKDTLMISRTPEVTCVVVDVSHEDPEVKFNWYVDGVEVHNAKTKPREEQYNSTYRVVSVLTVLHQDWLNGKEYKCKVSNKALPAPIEKTISKAKGQPREPQVYTLPPSRDELTKNQVSLTCLVKGFYPSDIAVEWESNGQPENNYKTTPPVLDSDGSFFLYSKLTVDKSRWQQGNVFSCSVMHEALHNHYTQKSLSLSPGK
light: QIVLSQSPAILSASPGEKVTMTCRASSSVSYIHWFQQKPGSSPKPWIYATSNLASGVPVRFSGSGSGTSYSLTISRVEAEDAATYYCQQWTSNPPTFGGGTKLEIKRTVAAPSVFIFPPSDEQLKSGTASVVCLLNNFYPREAKVQWKVDNALQSGNSQESVTEQDSKDSTYSLSSTLTLSKADYEKHKVYACEVTHQGLSSPVTKSFNRGEC
notes: also called 2-40
B6: anti-CD20 human IgG1 L234G/L235S/G236R (antibody)
heavy: QVQLQQPGAELVKPGASVKMSCKASGYTFTSYNMHWVKQTPGRGLEWIGAIYPGNGDTSYNQKFKGKATLTADKSSSTAYMQLSSLTSEDSAVYYCARSTYYGGDWYFNVWGAGTTVTVSSASTKGPSVFPLAPSSKSTSGGTAALGCLVKDYFPEPVTVSWNSGALTSGVHTFPAVLQSSGLYSLSSVVTVPSSSLGTQTYICNVNHKPSNTKVDKKVEPKSCDKTHTCPPCPAPEGSRGPSVFLFPPKPKDTLMISRTPEVTCVVVDVSHEDPEVKFNWYVDGVEVHNAKTKPREEQYNSTYRVVSVLTVLHQDWLNGKEYKCKVSNKALPAPIEKTISKAKGQPREPQVYTLPPSRDELTKNQVSLTCLVKGFYPSDIAVEWESNGQPENNYKTTPPVLDSDGSFFLYSKLTVDKSRWQQGNVFSCSVMHEALHNHYTQKSLSLSPGK
light: QIVLSQSPAILSASPGEKVTMTCRASSSVSYIHWFQQKPGSSPKPWIYATSNLASGVPVRFSGSGSGTSYSLTISRVEAEDAATYYCQQWTSNPPTFGGGTKLEIKRTVAAPSVFIFPPSDEQLKSGTASVVCLLNNFYPREAKVQWKVDNALQSGNSQESVTEQDSKDSTYSLSSTLTLSKADYEKHKVYACEVTHQGLSSPVTKSFNRGEC
notes: also called 2-19; 1-59
B7: anti-CD20 human IgG1 L234T/L235T/G236R (antibody)
heavy: QVQLQQPGAELVKPGASVKMSCKASGYTFTSYNMHWVKQTPGRGLEWIGAIYPGNGDTSYNQKFKGKATLTADKSSSTAYMQLSSLTSEDSAVYYCARSTYYGGDWYFNVWGAGTTVTVSSASTKGPSVFPLAPSSKSTSGGTAALGCLVKDYFPEPVTVSWNSGALTSGVHTFPAVLQSSGLYSLSSVVTVPSSSLGTQTYICNVNHKPSNTKVDKKVEPKSCDKTHTCPPCPAPETTRGPSVFLFPPKPKDTLMISRTPEVTCVVVDVSHEDPEVKFNWYVDGVEVHNAKTKPREEQYNSTYRVVSVLTVLHQDWLNGKEYKCKVSNKALPAPIEKTISKAKGQPREPQVYTLPPSRDELTKNQVSLTCLVKGFYPSDIAVEWESNGQPENNYKTTPPVLDSDGSFFLYSKLTVDKSRWQQGNVFSCSVMHEALHNHYTQKSLSLSPGK
light: QIVLSQSPAILSASPGEKVTMTCRASSSVSYIHWFQQKPGSSPKPWIYATSNLASGVPVRFSGSGSGTSYSLTISRVEAEDAATYYCQQWTSNPPTFGGGTKLEIKRTVAAPSVFIFPPSDEQLKSGTASVVCLLNNFYPREAKVQWKVDNALQSGNSQESVTEQDSKDSTYSLSSTLTLSKADYEKHKVYACEVTHQGLSSPVTKSFNRGEC
notes: also called 2-63; 1-165

How the values were obtained:
[1] = biological target: T1, human FcRn (R&D Systems Cat. No. 8639-Fc) (human, UniProt P55899 24-297; P61769 21-119); test: SPR, FcRn captured; Mean
T1 sequence (P55899 24-297 limits assumed, chain 1 of 2): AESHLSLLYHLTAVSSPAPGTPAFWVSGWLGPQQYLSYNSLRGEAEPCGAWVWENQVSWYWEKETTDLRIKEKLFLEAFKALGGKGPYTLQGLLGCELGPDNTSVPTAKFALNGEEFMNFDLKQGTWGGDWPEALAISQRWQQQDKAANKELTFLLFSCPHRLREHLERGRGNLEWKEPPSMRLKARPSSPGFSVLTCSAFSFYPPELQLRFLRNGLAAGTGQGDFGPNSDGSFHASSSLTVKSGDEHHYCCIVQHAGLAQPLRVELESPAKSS
T1 sequence (P61769 21-119 limits assumed, chain 2 of 2): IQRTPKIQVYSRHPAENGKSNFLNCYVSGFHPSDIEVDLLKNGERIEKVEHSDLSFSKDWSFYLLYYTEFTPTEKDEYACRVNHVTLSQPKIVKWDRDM

[2] = biological target: T1, human FcRn (R&D Systems Cat. No. …); test: SPR, FcRn captured; Expt 1
[3] = biological target: T1, human FcRn (R&D Systems Cat. No. …); test: SPR, FcRn captured; Expt 2
[4] = biological target: T1, human FcRn (R&D Systems Cat. No. …); test: SPR, FcRn captured; Expt 3
[5] = biological target: T2, Human C1q (Sigma Cat. No. 20476), HRP-labelled (human, UniProt P02745 23-245; P02746 28-253; P02747 29-245); test: ELISA, antibody coated, HRP-C1q; Expt 1, buffer alone 0.061
T2 construct: Coupled to horse-radish peroxidase with Lightning-Link kit; also called HRP-labelled C1q

human FcγRIIIA (F158) = biological target: T3, human FcγRIIIA (F158) (human, UniProt P08637 17-208); test: SPR, FcγRIIIA captured; note: test concentration or dose not given here
T3 construct: bought; F158 allele
T3 sequence (P08637 17-208 limits assumed): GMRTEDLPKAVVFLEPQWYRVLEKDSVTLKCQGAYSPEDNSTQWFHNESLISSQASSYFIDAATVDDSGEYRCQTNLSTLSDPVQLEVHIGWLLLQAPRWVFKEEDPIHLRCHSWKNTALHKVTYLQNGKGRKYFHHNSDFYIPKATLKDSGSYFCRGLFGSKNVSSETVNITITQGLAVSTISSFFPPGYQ

[6] = biological target: T4, Histidine-tagged recombinant human FcγRI (CD64) (human, UniProt P12314 16-288, limits assumed); test: SPR, His-FcγRI captured; Expt 1;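 note: SPR at 25 °C on anti-His antibody chip capturing FcγRI, Fc-variant antibodies injected at 100 µg/mL for 1 min, signal near end of injection minus buffer blank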
T4 construct: bought

[7] = biological target: T4, Histidine-tagged recombinant human …; test: SPR, His-FcγRI captured; Expt 2;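 note: biacore T200 SPR at 25 °C, Fc-variant antibodies at 100 µg/mL flowed 1 min over anti-His-captured receptor, signal read near injection end minus third buffer blank; antibody analyte injected at 100 µg/mL for 1 min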
[8] = biological target: T4, Histidine-tagged recombinant human …; test: SPR, His-FcγRI captured; Expt 3;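 note: biacore T200 SPR at 25 °C, Fc-variant antibodies at 100 µg/mL flowed 1 min over anti-His-captured FcγRI, signal taken just before injection end minus a buffer blank cycle; antibody analyte injected at 100 µg/mL for 1 min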
[9] = biological target: T4, Histidine-tagged recombinant human …; test: SPR, His-FcγRI captured; mean;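 note: biacore T200 SPR at 25 °C, anti-His surface capturing FcγRI, Fc-variant antibodies injected at 100 µg/mL for 1 min, signal near injection end minus third buffer blank, three repeats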

| Binder | Corrected and normalised response (% of wild-type reference) [1] | Corrected and normalised response (% of wild-type reference) [2] | Corrected and normalised response (% of wild-type reference) [3] | Corrected and normalised response (% of wild-type reference) [4] | Mean Absorbance [5] | Corrected response (RU) (human FcγRIIIA (F158)) | Corrected response (RU) [6] [RU] | Corrected response (RU) [7] [RU] | Corrected response (RU) [8] [RU] | Corrected response (RU), Mean [9] [RU] |
| --- | --- | --- | --- | --- | --- | --- | --- | --- | --- | --- |
| B1 | 100 % of wild-type reference | 99.2 % of wild-type reference | 100 % of wild-type reference | 100 % of wild-type reference | 0.126 absorbance (450 nm) |  |  |  |  |  |
| B2 |  |  |  |  |  | 7.3 | -1.7 | 1.1 | 4.1 |  |
| B3 |  |  |  |  |  | 7.1 | 0.6 |  | 3.2 | 2.2 |
| B4 |  |  |  |  |  | 4.4 |  |  | 3.6 | 2.2 |
| B5 |  |  |  |  |  | 4.4 | 0 | 2.4 | 3.9 |  |
| B6 |  |  |  |  |  | 5.8 | -0.1 | 2.7 | 3.1 |  |
| B7 |  |  |  |  |  | 17.1 | 1.3 |  |  |  |
